Test results: patent US20250352667A1

What was measured:
[1] = target: KEAP1 (wild-type full-length), His-tagged (human) (UniProt Q14145); test: AlphaScreen; 2.4 nM FLAG-NRF2, 150 nM His-KEAP1; Rep 1
[2] = target: KEAP1 (wild-type full-length), His-tagged (human) (UniProt Q14145); test: AlphaScreen; 2.4 nM FLAG-NRF2, 150 nM His-KEAP1; Rep 2
[3] = target: KEAP1 (wild-type full-length), His-tagged (human) (UniProt Q14145); test: AlphaScreen; 4.8 nM FLAG-NRF2, 150 nM His-KEAP1; Rep 1
[4] = target: KEAP1 (wild-type full-length), His-tagged (human) (UniProt Q14145); test: AlphaScreen; 4.8 nM FLAG-NRF2, 150 nM His-KEAP1; Rep 2
[5] = target: KEAP1 (wild-type full-length), His-tagged (human) (UniProt Q14145); test: AlphaScreen; 9.6 nM FLAG-NRF2, 150 nM His-KEAP1; Rep 1
[6] = target: KEAP1 (wild-type full-length), His-tagged (human) (UniProt Q14145); test: AlphaScreen; 9.6 nM FLAG-NRF2, 150 nM His-KEAP1; Rep 2
[7] = target: KEAP1 (wild-type full-length), His-tagged (human) (UniProt Q14145); test: AlphaScreen; 19.2 nM FLAG-NRF2, 150 nM His-KEAP1; Rep 1
[8] = target: KEAP1 (wild-type full-length), His-tagged (human) (UniProt Q14145); test: AlphaScreen; 19.2 nM FLAG-NRF2, 150 nM His-KEAP1; Rep 2
[9] = target: KEAP1 (wild-type full-length), His-tagged (human) (UniProt Q14145); test: AlphaScreen; 38.4 nM FLAG-NRF2, 150 nM His-KEAP1; Rep 1
[10] = target: KEAP1 (wild-type full-length), His-tagged (human) (UniProt Q14145); test: AlphaScreen; 38.4 nM FLAG-NRF2, 150 nM His-KEAP1; Rep 2
[11] = target: KEAP1 (wild-type full-length), His-tagged (human) (UniProt Q14145); test: AlphaScreen; 76.8 nM FLAG-NRF2, 150 nM His-KEAP1; Rep 1
[12] = target: KEAP1 (wild-type full-length), His-tagged (human) (UniProt Q14145); test: AlphaScreen; 76.8 nM FLAG-NRF2, 150 nM His-KEAP1; Rep 2
[13] = target: KEAP1 (wild-type full-length), His-tagged (human) (UniProt Q14145); test: AlphaScreen; 153.6 nM FLAG-NRF2, 150 nM His-KEAP1; Rep 1
[14] = target: KEAP1 (wild-type full-length), His-tagged (human) (UniProt Q14145); test: AlphaScreen; 153.6 nM FLAG-NRF2, 150 nM His-KEAP1; Rep 2
[15] = target: KEAP1 (wild-type full-length), His-tagged (human) (UniProt Q14145); test: AlphaScreen; 307.2 nM FLAG-NRF2, 150 nM His-KEAP1; Rep 1
[16] = target: KEAP1 (wild-type full-length), His-tagged (human) (UniProt Q14145); test: AlphaScreen; 307.2 nM FLAG-NRF2, 150 nM His-KEAP1; Rep 2
[17] = target: KEAP1 (wild-type full-length), His-tagged (human) (UniProt Q14145); test: AlphaScreen; 614.4 nM FLAG-NRF2, 150 nM His-KEAP1; Rep 1
[18] = target: KEAP1 (wild-type full-length), His-tagged (human) (UniProt Q14145); test: AlphaScreen; 614.4 nM FLAG-NRF2, 150 nM His-KEAP1; Rep 2
[19] = target: KEAP1 (wild-type full-length), His-tagged (human) (UniProt Q14145); test: AlphaScreen; 1228.8 nM FLAG-NRF2, 150 nM His-KEAP1; Rep 1
[20] = target: KEAP1 (wild-type full-length), His-tagged (human) (UniProt Q14145); test: AlphaScreen; 1228.8 nM FLAG-NRF2, 150 nM His-KEAP1; Rep 2
[21] = target: KEAP1 (wild-type full-length), His-tagged (human) (UniProt Q14145); test: AlphaScreen; 2.4 nM FLAG-NRF2, 150 nM His-KEAP1; signal against NRF2 only
[22] = target: KEAP1 (wild-type full-length), His-tagged (human) (UniProt Q14145); test: AlphaScreen; 4.8 nM FLAG-NRF2, 150 nM His-KEAP1; signal against NRF2 only
[23] = target: KEAP1 (wild-type full-length), His-tagged (human) (UniProt Q14145); test: AlphaScreen; 9.6 nM FLAG-NRF2, 150 nM His-KEAP1; signal against NRF2 only
[24] = target: KEAP1 (wild-type full-length), His-tagged (human) (UniProt Q14145); test: AlphaScreen; 19.2 nM FLAG-NRF2, 150 nM His-KEAP1; signal against NRF2 only
[25] = target: KEAP1 (wild-type full-length), His-tagged (human) (UniProt Q14145); test: AlphaScreen; 38.4 nM FLAG-NRF2, 150 nM His-KEAP1; signal against NRF2 only
[26] = target: KEAP1 (wild-type full-length), His-tagged (human) (UniProt Q14145); test: AlphaScreen; 76.8 nM FLAG-NRF2, 150 nM His-KEAP1; signal against NRF2 only
[27] = target: KEAP1 (wild-type full-length), His-tagged (human) (UniProt Q14145); test: AlphaScreen; 307.2 nM FLAG-NRF2, 150 nM His-KEAP1; signal against NRF2 only
[28] = target: KEAP1 (wild-type full-length), His-tagged (human) (UniProt Q14145); test: AlphaScreen; 614.4 nM FLAG-NRF2, 150 nM His-KEAP1; signal against NRF2 only
[29] = target: KEAP1 (wild-type full-length), His-tagged (human) (UniProt Q14145); test: AlphaScreen; 1228.8 nM FLAG-NRF2, 150 nM His-KEAP1; signal against NRF2 only

KEAP1 (wild-type full-length), His-tagged (human), sequence (Q14145 2-624 limits assumed, form in doubt): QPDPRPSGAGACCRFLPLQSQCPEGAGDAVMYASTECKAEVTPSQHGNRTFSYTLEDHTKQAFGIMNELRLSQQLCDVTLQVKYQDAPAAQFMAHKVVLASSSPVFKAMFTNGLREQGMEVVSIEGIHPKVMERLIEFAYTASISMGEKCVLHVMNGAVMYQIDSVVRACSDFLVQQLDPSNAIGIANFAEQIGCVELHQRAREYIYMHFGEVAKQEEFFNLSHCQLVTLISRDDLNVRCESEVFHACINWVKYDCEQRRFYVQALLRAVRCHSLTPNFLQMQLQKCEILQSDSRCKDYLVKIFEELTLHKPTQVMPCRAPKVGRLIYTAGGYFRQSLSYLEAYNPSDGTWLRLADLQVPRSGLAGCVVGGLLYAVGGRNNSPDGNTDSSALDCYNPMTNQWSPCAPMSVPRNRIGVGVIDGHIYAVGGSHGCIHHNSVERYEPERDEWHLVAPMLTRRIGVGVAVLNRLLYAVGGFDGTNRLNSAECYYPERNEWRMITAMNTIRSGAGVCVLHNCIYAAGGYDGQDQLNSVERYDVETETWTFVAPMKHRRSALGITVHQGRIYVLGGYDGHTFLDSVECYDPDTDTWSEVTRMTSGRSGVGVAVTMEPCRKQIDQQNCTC

With “NRF2 isoform 2 (E63G/E66G full-length), FLAG-tagged” the A-counts [1] was 1080 A-counts, the A-counts [2] was 1120 A-counts and the A-counts [3] was 1390 A-counts. The A-counts [4] was 1480 A-counts, the A-counts [5] was 1670 A-counts and the A-counts [6] was 1520 A-counts. It also gave an A-counts [7] of 1700 A-counts, an A-counts [8] of 1950 A-counts and an A-counts [9] of 2120 A-counts. For the same substance, the A-counts [10] was 1960 A-counts, the A-counts [11] was 2140 A-counts and the A-counts [12] was 1900 A-counts. The A-counts [13] was 1820 A-counts, the A-counts [14] was 1840 A-counts and the A-counts [15] was 1600 A-counts. The A-counts [16] was 1650 A-counts, the A-counts [17] was 1570 A-counts and the A-counts [18] was 1400 A-counts. For the same substance, the A-counts [19] was 1250 A-counts, the A-counts [20] was 1210 A-counts and the S/N [21] was 1.7. The S/N [22] was 1.8, the S/N [23] was 1.8 and the S/N [24] was 1.8. It also gave a S/N [25] of 1.8, a S/N [26] of 1.7 and a S/N [27] of 1.1. The S/N [28] was 1.1 and the S/N [29] was 1.
“NRF2 isoform 2 (wild-type full-length), FLAG-tagged” was tested, and the A-counts [1] was 1130 A-counts, the A-counts [2] was 1010 A-counts and the A-counts [3] was 1740 A-counts. For the same substance, the A-counts [4] was 1670 A-counts, the A-counts [5] was 2310 A-counts and the A-counts [6] was 2590 A-counts. It also gave an A-counts [7] of 3480 A-counts, an A-counts [8] of 3260 A-counts and an A-counts [9] of 3470 A-counts. The A-counts [10] was 3460 A-counts, the A-counts [11] was 3730 A-counts and the A-counts [12] was 3910 A-counts. It also gave an A-counts [13] of 3200 A-counts, an A-counts [14] of 3500 A-counts and an A-counts [15] of 2970 A-counts. For the same substance, the A-counts [16] was 2860 A-counts, the A-counts [17] was 2430 A-counts and the A-counts [18] was 2290 A-counts. It also gave an A-counts [19] of 1480 A-counts, an A-counts [20] of 1470 A-counts and a S/N [21] of 2. For the same substance, the S/N [22] was 2.7, the S/N [23] was 3.7 and the S/N [24] was 4.2. For the same substance, the S/N [25] was 3.4, the S/N [26] was 3.4 and the S/N [27] was 2.2. It also gave a S/N [28] of 2.1 and a S/N [29] of 1.3.
